Source: the Immune Epitope Database (IEDB)

Legend:
Test in all cases: IEDB peptide-MHC binding, purified MHC/competitive/fluorescence; filed as Kd, often an IC50 or EC50 that approximates it; ≥ and ≤ were set here for values at or beyond the usual limits of such assays
HLA-B*57:01 = target: HLA-B*57:01
HLA-A*68:02 = target: HLA-A*68:02
HLA-A*24:03 = target: HLA-A*24:03
HLA-A*23:01 = target: HLA-A*23:01
HLA-A*80:01 = conditions: source organism: Escherichia coli O157:H7 str. Sakai
HLA-A*29:02 = target: HLA-A*29:02
HLA-A*69:01 = conditions: source organism: Escherichia coli O157:H7 str. Sakai
HLA-A*02:03 = conditions: source organism: Escherichia coli O157:H7 str. Sakai
HLA-A*02:19 = target: HLA-A*02:19
HLA-A*02:11 = conditions: source organism: Escherichia coli O157:H7 str. Sakai
HLA-A*02:12 = conditions: source organism: Escherichia coli O157:H7 str. Sakai
HLA-B*46:01 = target: HLA-B*46:01
HLA-A*26:01 = target: HLA-A*26:01
HLA-B*39:01 = target: HLA-B*39:01
HLA-A*02:01 = target: HLA-A*02:01
HLA-B*51:01 = target: HLA-B*51:01
HLA-A*02:16 = conditions: source organism: Escherichia coli O157:H7 str. Sakai
HLA-B*44:02 = conditions: source organism: Entamoeba histolytica HM-1:IMSS
HLA-B*15:01 = conditions: source organism: Entamoeba histolytica HM-1:IMSS
HLA-A*01:01 = conditions: source organism: Entamoeba histolytica HM-1:IMSS
HLA-B*27:03 = conditions: source organism: Entamoeba histolytica HM-1:IMSS
HLA-A*03:01 = conditions: source organism: Entamoeba histolytica HM-1:IMSS
HLA-B*18:01 = conditions: source organism: Entamoeba histolytica HM-1:IMSS
HLA-A*30:02 = conditions: source organism: Entamoeba histolytica HM-1:IMSS
HLA-B*53:01 = conditions: source organism: Entamoeba histolytica HM-1:IMSS
HLA-A*66:01 = conditions: source organism: Entamoeba histolytica HM-1:IMSS
HLA-A*30:01 = conditions: source organism: Entamoeba histolytica HM-1:IMSS
HLA-B*15:17 = conditions: source organism: Entamoeba histolytica HM-1:IMSS
HLA-B*27:05 = conditions: source organism: Entamoeba histolytica HM-1:IMSS
HLA-B*58:01 = conditions: source organism: Entamoeba histolytica HM-1:IMSS
HLA-B*40:01 = conditions: source organism: Entamoeba histolytica HM-1:IMSS
HLA-B*08:01 = conditions: source organism: Entamoeba histolytica HM-1:IMSS
HLA-B*14:02 = conditions: source organism: Entamoeba histolytica HM-1:IMSS
HLA-A*11:01 = conditions: source organism: Entamoeba histolytica HM-1:IMSS
[1] = source organism: Escherichia coli O157:H7 str. Sakai
[2] = source organism: Entamoeba histolytica HM-1:IMSS

Question: For HQIWLALRY, which Kd (HLA-B*57:01; [1]) is on record?
Answer: ≥ 20 µM

Question: What about the Kd (HLA-A*68:02; [1]) of the same sequence?
Answer: ≥ 20 µM

Question: What about the Kd (HLA-A*24:03; [1]) of the same sequence?
Answer: ≥ 20 µM

Question: And the Kd (HLA-A*23:01; [1])?
Answer: ≥ 20 µM

Question: And the Kd (HLA-A*80:01)?
Answer: 0.0072 µM

Question: What about the Kd (HLA-A*29:02; [1]) of the same sequence?
Answer: 0.0016 µM

Question: And the Kd (HLA-A*69:01)?
Answer: ≥ 20 µM

Question: And the Kd (HLA-A*02:03)?
Answer: ≥ 20 µM

Question: What about the Kd (HLA-A*02:19; [1]) of the same sequence?
Answer: ≥ 20 µM

Question: And the Kd (HLA-A*02:11)?
Answer: ≥ 20 µM

Question: And the Kd (HLA-A*02:12)?
Answer: ≥ 20 µM

Question: What about the Kd (HLA-B*46:01; [1]) of the same sequence?
Answer: ≥ 20 µM

Question: And the Kd (HLA-A*26:01; [1])?
Answer: ≥ 20 µM

Question: What about the Kd (HLA-B*39:01; [1]) of the same sequence?
Answer: ≥ 20 µM

Question: And the Kd (HLA-A*02:01; [1])?
Answer: ≥ 20 µM

Question: And the Kd (HLA-B*51:01; [1])?
Answer: ≥ 20 µM

Question: What about the Kd (HLA-A*02:16) of the same sequence?
Answer: ≥ 20 µM

Question: How did the Kd (HLA-B*44:02) turn out when NPAACSYMV was run?
Answer: ≥ 5 µM

Question: And the Kd (HLA-B*57:01; [2])?
Answer: ≥ 20 µM

Question: What about the Kd (HLA-B*15:01) of the same sequence?
Answer: ≥ 20 µM

Question: What about the Kd (HLA-A*01:01) of the same sequence?
Answer: ≥ 5 µM

Question: And the Kd (HLA-A*68:02; [2])?
Answer: 0.0283 µM

Question: What about the Kd (HLA-B*27:03) of the same sequence?
Answer: ≥ 20 µM

Question: And the Kd (HLA-A*03:01)?
Answer: ≥ 20 µM

Question: And the Kd (HLA-A*24:03; [2])?
Answer: ≥ 20 µM

Question: And the Kd (HLA-B*18:01)?
Answer: ≥ 20 µM

Question: What about the Kd (HLA-A*23:01; [2]) of the same sequence?
Answer: ≥ 20 µM

Question: What about the Kd (HLA-A*30:02) of the same sequence?
Answer: ≥ 5 µM

Question: What about the Kd (HLA-B*53:01) of the same sequence?
Answer: ≥ 5 µM

Question: And the Kd (HLA-A*29:02; [2])?
Answer: 0.122 µM

Question: What about the Kd (HLA-A*02:19; [2]) of the same sequence?
Answer: ≥ 20 µM

Question: And the Kd (HLA-A*66:01)?
Answer: ≥ 5 µM

Question: What about the Kd (HLA-A*30:01) of the same sequence?
Answer: ≥ 5 µM

Question: And the Kd (HLA-B*15:17)?
Answer: ≥ 20 µM

Question: And the Kd (HLA-B*27:05)?
Answer: ≥ 5 µM

Question: What about the Kd (HLA-B*58:01) of the same sequence?
Answer: ≥ 5 µM

Question: And the Kd (HLA-B*46:01; [2])?
Answer: ≥ 20 µM

Question: And the Kd (HLA-A*26:01; [2])?
Answer: ≥ 20 µM

Question: And the Kd (HLA-B*40:01)?
Answer: ≥ 5 µM

Question: What about the Kd (HLA-B*39:01; [2]) of the same sequence?
Answer: 0.232 µM

Question: What about the Kd (HLA-B*08:01) of the same sequence?
Answer: ≥ 5 µM

Question: And the Kd (HLA-A*02:01; [2])?
Answer: ≥ 20 µM

Question: And the Kd (HLA-B*14:02)?
Answer: ≥ 5 µM

Question: And the Kd (HLA-B*51:01; [2])?
Answer: ≥ 20 µM

Question: And the Kd (HLA-A*11:01)?
Answer: ≥ 5 µM
